According to paper PMC7572793 (Immunity, 2020):
Substitutions are numbered along the chain they refer to.

Key:
Assay in all cases: ELISA
(NANP)8 = molecular target: T1, (NANP)8 (Plasmodium falciparum)
T1 chain: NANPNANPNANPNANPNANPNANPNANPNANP

(NANP)7 = molecular target: T2, (NANP)7 (Plasmodium falciparum)
T2 chain: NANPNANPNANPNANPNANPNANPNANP

(NANP)5 = molecular target: T3, (NANP)5 (Plasmodium falciparum)
T3 chain: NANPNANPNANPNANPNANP

(NANP)9 = molecular target: T4, (NANP)9 (Plasmodium falciparum)
T4 chain: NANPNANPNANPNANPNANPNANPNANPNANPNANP

peptide 29 = molecular target: T5, peptide 29 (Plasmodium falciparum 3D7)
T5 chain: NANPNANPNANPNAN

(NANP)6 = molecular target: T6, (NANP)6 (Plasmodium falciparum)
T6 chain: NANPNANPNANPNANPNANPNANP

(NANP)3 = molecular target: T7, (NANP)3 (Plasmodium falciparum)
T7 chain: NANPNANPNANP

Measured: binding result

B1: MGU12 (antibody, V domains shown)
VH: QVQLVESGGGVVQPGRSLRLSCAASGFSFSSYGMHWVRQAPGKGPEWVAVIWHDGSYSYYADSVRGRFTISRDNSKNTLYLQMNSLRPEDTGMYHCVKVEDYVRGSSHGGAFHIWGQGTMVTVSS
VL: DIQMTQSPSTLSASVGDRVTITCRASQTINNWLAWYQWKPGKAPELLIYKASSLESGVPSRFSGSGSGTEFTLTISSLQPDDFATYYCQQYSSYWTFGQGTKVDIK
binds: all assays above

B2: 1210 (antibody, V domains shown)
VH: QVQLVESGGGVVQPGRSLRLSCAASGFTFSNYGMHWVRQAPGKGLEWVAVIWYDGSKKYYADSVKGRFTISRDNSKNTLYLQMNSLRAEDTAVYYCARVRDSSDYYGDAFDIWGQGTMVTVSS
VL: B1 VL with T28S, N30S, N31S, W38Q, E45K, S53N, S60L, S92N, S93N, D104E
not listed: (NANP)5 | (NANP)3
binds: all other assays above

B3: 317 (antibody, V domains shown)
VH: QMQLVESGGGVVQPGRSLRLSCTASGFTFSTYAMHWVRQSPGQGLQWVAVISYHSTNKYYEDSVRGRFTISRDNSKNTLYLQMNSLRAEDTAVYYCARDGYSSSFFDFWGQGTLVTVSS
VL: DIQMTQSPSTLSASVGDRVAITCRASQSISRWLAWYQQQPGKAPKLLMSGASVLESGVPSRFSGSGSGTEFTLTISSLQPDDFATYYCQHYNSYFVTFGQGTKVEIK
not listed: (NANP)6
binds: all other assays above

B4: CIS43 (antibody, V domains shown)
VH: QVQLVQSGAEVKKPGASVKVSCKASGYTFTSYAIHWVRQAPGQRLEWMGWIKAGNGNTRYSQKFQDRVTITRDTSTTTAYMELSSLRSEDTAVYYCALLTVLTPDDAFDIWGQGTMVTVSS
VL: not shown
binds: (NANP)9

B5: 311 (antibody, V domains shown)
VH: QVQLVESGGGVVPPGRSLRLSCATSGFTFSNYGMHWVRQAPGKGLEWVAIIWYDGSRNFYAASVEGRFTISRDNSKNTLYLQMNSLRVEDTAVYYCARAAYYDTSGYGDYWGQGTLVTVSS
VL: QSVLTQPPSVSGAPGQTVTISCTGGSSNIGAGYDVHWYQQLPGTAPKLLIYGNINRPSGVPDRFSGSKSGTSASLAITGLQAEDEADYYCQSYDRRLSGSWVFGGGTKLTVL
binds: all assays above
